Values quoted from earlier work, collected in patent US20030175285A1, “Molecule of pharmaceutical interest comprising at its n-terminal a glutamic acid or a glutamine in the form of a physiologically acceptable strong acid” (priority 2000, published 2003).

Settings: in 2 months, formulated with adjuvant solution of the Montanide ISA 720 type

EEGAIVGEI
spontaneous cyclization to pyroglutamate: 30%
